The experiment concerns the target KGF receptor (mouse) (UniProt P21803). As to the kind of experiment: cell-based or functional assay.
UniProt P21803, sequence (P21803 22-821): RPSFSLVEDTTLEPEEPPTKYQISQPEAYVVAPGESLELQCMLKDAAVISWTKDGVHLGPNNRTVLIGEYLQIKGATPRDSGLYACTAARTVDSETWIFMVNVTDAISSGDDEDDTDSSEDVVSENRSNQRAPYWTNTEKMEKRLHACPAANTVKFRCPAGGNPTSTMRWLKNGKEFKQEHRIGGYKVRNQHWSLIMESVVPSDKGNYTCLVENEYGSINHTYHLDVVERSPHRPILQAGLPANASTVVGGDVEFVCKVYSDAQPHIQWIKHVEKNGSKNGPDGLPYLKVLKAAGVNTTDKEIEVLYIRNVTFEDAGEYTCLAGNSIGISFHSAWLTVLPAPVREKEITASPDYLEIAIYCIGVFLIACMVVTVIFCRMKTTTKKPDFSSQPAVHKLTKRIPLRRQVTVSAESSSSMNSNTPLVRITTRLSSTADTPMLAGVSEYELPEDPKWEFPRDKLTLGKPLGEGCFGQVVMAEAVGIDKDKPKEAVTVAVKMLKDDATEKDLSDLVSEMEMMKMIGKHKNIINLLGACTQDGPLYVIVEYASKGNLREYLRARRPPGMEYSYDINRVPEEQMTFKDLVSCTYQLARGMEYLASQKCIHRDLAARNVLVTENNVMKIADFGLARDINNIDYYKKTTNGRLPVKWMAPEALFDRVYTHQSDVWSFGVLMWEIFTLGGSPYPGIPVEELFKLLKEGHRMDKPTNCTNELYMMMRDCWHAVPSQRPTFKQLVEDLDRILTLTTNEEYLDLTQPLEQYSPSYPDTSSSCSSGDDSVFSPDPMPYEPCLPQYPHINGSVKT

The substance acidic FGF (ligand) returned a potency as mitogen for Balb/Mk cells (cell proliferation), relative to KGF (fold less than KGF) of 10.

These data come from patent publication US20030109439A1.
